In PMC6093632 (Science Advances, 2018):

Target: the molecule itself
Test: cryo-EM structure

B1: full-length rat TRPV6 (natural protein, UniProt Q9R186 41-767, looked up)
chain: MGWSLPKEKGLILCLWNKFCRWFHRRESWAQSRDEQNLLQQKRIWESPLLLAAKENNVQALIKLLKFEGCEVHQKGAMGETALHIAALYDNLEAAMVLMEAAPELVFEPMTSELYEGQTALHIAVINQNVNLVRALLARGASVSARATGSVFHYRPHNLIYYGEHPLSFAACVGSEEIVRLLIEHGADIRAQDSLGNTVLHILILQPNKTFACQMYNLLLSYDGGDHLKSLELVPNNQGLTPFKLAGVEGNIVMFQHLMQKRKHIQWTYGPLTSTLYDLTEIDSSGDDQSLLELIVTTKKREARQILDQTPVKELVSLKWKRYGRPYFCVLGAIYVLYIICFTMCCVYRPLKPRITNRTNPRDNTLLQQKLLQEAYVTPKDDLRLVGELVSIVGAVIILLVEIPDIFRLGVTRFFGQTILGGPFHVIIVTYAFMVLVTMVMRLTNSDGEVVPMSFALVLGWCNVMYFARGFQMLGPFTIMIQKMIFGDLMRFCWLMAVVILGFASAFYIIFQTEDPDELGHFYDYPMALFSTFELFLTIIDGPANYDVDLPFMYSITYAAFAIIATLLMLNLLIAMMGDTHWRVAHERDELWRAQVVATTVMLERKLPRCLWPRSGICGREYGLGDRWFLRVEDRQDLNRQRIRRYAQAFQQQDDLYSEDLEKDSGEKLEMARPFGAYLSFPTPSVSRSTSRSSTNWDRLRQGALRKDLQGIINRGLEDGEGWEYQI
  stoichiometry N: 4 subunits
